Data taken from patent US20130289100 (The Research Foundation for the State University of New York, published 2013).

Legend:
Details in all cases: chain copies: 4 (inferred)
[1] = target: T1, GluA2Qflip AMPA receptor subunit (Rattus norvegicus, UniProt P19491-2 P19491-2:22-883); assay: competition; open-channel conformation; homologous competition with radiolabeled AF44
[2] = target: T1, GluA2Qflip AMPA receptor subunit; assay: competition; unliganded closed-channel conformation; homologous competition with radiolabeled AF44
[3] = target: T1, GluA2Qflip AMPA receptor subunit; assay: competition; open-channel conformation; homologous competition with radiolabeled AF42
[4] = target: T1, GluA2Qflip AMPA receptor subunit; assay: competition; closed-channel conformation; homologous competition with radiolabeled AF42

T1 sequence (P19491 other isoform, or with tags, fused parts or gaps): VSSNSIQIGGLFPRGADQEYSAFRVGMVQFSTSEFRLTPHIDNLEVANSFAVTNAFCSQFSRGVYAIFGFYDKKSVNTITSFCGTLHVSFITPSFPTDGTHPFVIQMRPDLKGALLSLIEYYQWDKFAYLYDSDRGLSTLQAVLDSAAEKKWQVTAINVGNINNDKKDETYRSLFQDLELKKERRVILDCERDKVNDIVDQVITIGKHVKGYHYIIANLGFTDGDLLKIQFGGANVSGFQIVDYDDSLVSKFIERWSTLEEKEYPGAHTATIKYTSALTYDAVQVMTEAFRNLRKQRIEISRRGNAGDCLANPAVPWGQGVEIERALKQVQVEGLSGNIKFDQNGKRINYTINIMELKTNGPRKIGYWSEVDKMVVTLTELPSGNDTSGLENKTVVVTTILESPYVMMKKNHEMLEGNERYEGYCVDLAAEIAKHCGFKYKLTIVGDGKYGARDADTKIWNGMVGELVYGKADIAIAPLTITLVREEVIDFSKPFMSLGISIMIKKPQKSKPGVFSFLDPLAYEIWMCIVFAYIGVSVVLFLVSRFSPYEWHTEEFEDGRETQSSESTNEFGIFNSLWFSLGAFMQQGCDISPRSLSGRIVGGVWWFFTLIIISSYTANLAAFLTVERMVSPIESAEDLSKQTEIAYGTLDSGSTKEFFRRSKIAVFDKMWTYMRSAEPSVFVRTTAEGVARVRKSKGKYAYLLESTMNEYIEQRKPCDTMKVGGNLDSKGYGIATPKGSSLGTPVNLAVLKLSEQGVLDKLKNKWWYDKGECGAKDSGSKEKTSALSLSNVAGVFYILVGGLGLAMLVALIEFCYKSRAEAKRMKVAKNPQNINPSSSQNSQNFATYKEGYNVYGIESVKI

Row | Binder | Kd [1] [nM] | Kd [2] [nM] | Kd [3] [nM] | Kd [4] [nM]
1 | GGGAGAAUUCAACUGCCACGGAUAAUAGCCAAUACUACAACCGU (ssRNA) [AF44 (A22)] | 48 | 44 | – | –
2 | GGGAACGGUGCCAGUCCGAAACGGAUCGUUAGAGCAUCAGUA (ssRNA) [AF42] | – | – | 44 | 57
